# Measured values taken from patent US20250026823A1 (MERUS N V, published 2025).
# T1: extracellular domain of CLEC12A (amino acids 75 to 275) coupled to a His-tag (Sino Biological, cat.no. … (UniProt Q5QGZ9-1 75-275))
# T1 construct: range 75-275; Bought protein; also called coated CLEC12A; isolated extracellular domain of CLEC12A; not shown: His-tag
# T1 sequence (looked up): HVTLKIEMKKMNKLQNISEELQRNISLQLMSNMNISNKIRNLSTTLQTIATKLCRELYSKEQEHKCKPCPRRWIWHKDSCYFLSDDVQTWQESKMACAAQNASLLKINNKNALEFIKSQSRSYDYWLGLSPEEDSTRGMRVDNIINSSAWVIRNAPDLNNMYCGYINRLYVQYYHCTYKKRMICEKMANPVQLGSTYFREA
# T2: CLEC12A expressed on cells (CLEC12A-transfected CHO cells; HL60 cells) (UniProt Q5QGZ9 1-265, limits assumed)
# T2 construct: whole, on cells; also called cell-expressed CLEC12A
# T2 sequence (looked up): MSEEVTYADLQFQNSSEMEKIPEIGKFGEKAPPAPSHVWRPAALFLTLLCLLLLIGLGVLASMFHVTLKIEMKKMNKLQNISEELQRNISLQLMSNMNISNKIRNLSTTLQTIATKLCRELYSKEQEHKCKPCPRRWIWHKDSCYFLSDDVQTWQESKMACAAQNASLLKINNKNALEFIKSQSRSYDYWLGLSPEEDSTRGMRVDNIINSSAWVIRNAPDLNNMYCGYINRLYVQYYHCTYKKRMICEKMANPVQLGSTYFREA
# Columns and labels:
# [1] = target: T1, extracellular domain of CLEC12A (amino …); assay: ELISA, extracellular domain of CLEC12A coated at 2 µg/ml
# [2] = target: T2, CLEC12A expressed on cells …; assay: flow cytometry on HL60 cells, optimized IgG concentration
# [3] = target: T2, CLEC12A expressed on cells …; assay: cell-based or functional assay
# [4] = target: T2, CLEC12A expressed on cells …; assay: flow cytometry on CLEC12A-transfected CHO cells
Binder,optical density [1],mean fluorescent intensity [2],lysis of HL60 cells by AML patient derived T-cells (percentage of specific lysis relative to IgG) [3] [%],lysis of HL60 cells by healthy donor T cells (percentage of specific lysis relative to IgG) [3] [%],mean fluorescent intensity [4]
"4327 CLEC12A IgG (antibody, V domains shown, Full length human IgG1) VH: QVQLVQSGAEVKKPGASVKVSCKASGYTFTSYYMHWVRQAPGQGLEWMGIINPSGGSTSYAQKFQGRVTMTRDTSTSTVYMELSSLRSEDTAVYYCAKGTTGDWFDYWGQGTLVTVSS VL: not shown",1.31,1560,–,–,–
"4331 CLEC12A IgG (antibody, V domains shown, Full length human IgG1) VH: EVQLVQSGAEVKKPGASVKVSCKASGYTFTSYYMHWVRQAPGQGLEWMGIINPSGGSTSYAQKFQGRVTMTRDTSTSTVYMELSSLRSEDTAVYYCARGNYGDEFDYWGQGTLVTVSS VL: not shown",1.33,1110,–,–,–
"CD3XCLEC12A bsAb (3056x3116) with DM-Fc (bispecific antibody, V domains shown) VH 1: QVQLVQSGGGVVQPGRSLRLSCVASGFTFSSYGMHWVRQAPGKGLEWVAAIWYNGRKQDYADSVKGRFTISRDNSKNTLYLQMNSLRAEDTAVYYCTRGTGYNWFDPWGQGTLVTVSS VH 2: QVQLQESGPGLVKPSETLSLTCVVSGGSISSSNWWSWVRQPPGKGLEWIGEIYHSGSPDYNPSLKSRVTISVDKSRNQFSLKLSSVTAADTAVYYCAKVSTGGFFDYWGQGTLVTVSS VL: not shown",–,–,68,69,–
"candidate 3056x3116 CD3xCLEC12A bispecific IgG1 (bispecific antibody, V domains shown, Full length human IgG1 with wild type Fc and a common huVk1-39 light chain; The heavy chains were heterodimerised by known methods (Gunasekaran et al; WO2009/089004); also called CD3XCLEC12A WT Fc IgG1) VH 1: QVQLVQSGGGVVQPGRSLRLSCVASGFTFSSYGMHWVRQAPGKGLEWVAAIWYNGRKQDYADSVKGRFTISRDNSKNTLYLQMNSLRAEDTAVYYCTRGTGYNWFDPWGQGTLVTVSS VH 2: QVQLQESGPGLVKPSETLSLTCVVSGGSISSSNWWSWVRQPPGKGLEWIGEIYHSGSPDYNPSLKSRVTISVDKSRNQFSLKLSSVTAADTAVYYCAKVSTGGFFDYWGQGTLVTVSS VL: not shown",–,–,–,–,5300
"CD3 monospecific antibody (3056x3056) (antibody, V domains shown, Full length bivalent monoclonal IgG; also called CD3 IgG) VH: QVQLVQSGGGVVQPGRSLRLSCVASGFTFSSYGMHWVRQAPGKGLEWVAAIWYNGRKQDYADSVKGRFTISRDNSKNTLYLQMNSLRAEDTAVYYCTRGTGYNWFDPWGQGTLVTVSS VL: not shown",–,–,–,–,282
"CLEC12A monospecific antibody (3116x3116) (antibody, V domains shown, Bivalent IgG; also called CLEC12A benchmark antibody; CLEC12A benchmark IgG) VH: QVQLQESGPGLVKPSETLSLTCVVSGGSISSSNWWSWVRQPPGKGLEWIGEIYHSGSPDYNPSLKSRVTISVDKSRNQFSLKLSSVTAADTAVYYCAKVSTGGFFDYWGQGTLVTVSS VL: not shown",1.42,1470,–,–,4150
